Legend:
Assay type in all cases: cell-based
[1] = tested on: PCSK9 exon 12; assay: Indels editing in PCSK9 gene using Cas9 and blunting enzymes; settings: HEK293T cells, Cas9 + PCSK9 exon 12 sgRNA + blunting enzyme; for percentage of +1 insertion: Cas9 and sgRNA alone 14.4%; for percentage of +1 insertion / percentage of −1 deletion: FIGS. 11A-11H; for percentage of −1 deletion: Cas9 and sgRNA alone 4.3%; for +1 insertion frequency: control 9.4%, FIGS. 12A-12B
Method: To test for the efficiency of inducing indels in a target gene using Cas9 and blunting enzymes, Cas9 and PCSK9 exon 12 targeting sgRNA were co-transferred into cultured mammalian cells in combination with DNA polymerase μ (POLM), EXOG, T4 DNA polymerase (T4pol), DNA polymerase λ (POLL), MGME1, RecJ exonuclease (RecJ) or Nuclease S1 (nucS). Cas9 and sgRNA alone served as the negative control. The occurrence of indels for the control and each of the combinations was measured. HEK293T cells were used.
Results for each of the combinations are presented in FIGS. 11A-11H and comparisons between the control and blunting enzymes are presented in FIGS. 12A-12B.

[2] = tested on: GYPB gene; assay: Indels editing in GYPB gene using Cas9 and blunting enzymes; settings: cultured mammalian cells, Cas9 + GYPB sgRNA + blunting enzyme; for percentage of +1 insertion mutations: Cas9 and sgRNA alone 10.5%, FIGS. 13A-13H
Method: To test for the efficiency of inducing indels in a target gene using Cas9 and blunting enzymes, Cas9 and GYPB targeting sgRNA were co-transferred into cultured mammalian cells in combination with DNA polymerase μ (POLM), EXOG, T4 DNA polymerase (T4pol), DNA polymerase λ (POLL), MGME1, RecJ exonuclease (RecJ) or Nuclease S1 (nucS). Cas9 and sgRNA alone served as the negative control. The occurrence of indels for the control and each of the combinations was measured.

[3] = tested on: TPH2 exon 9; assay: Indels editing in TPH2 gene using Cas9 and blunting enzymes; settings: cultured mammalian cells, Cas9 + TPH2 sgRNA + blunting enzyme; for percentage of +1 insertion mutations: Cas9 and sgRNA alone 0%, FIGS. 14A-14H
Method: To test for the efficiency of inducing indels in a target gene using Cas9 and blunting enzymes, Cas9 and TPH2 targeting sgRNA were co-transferred into cultured mammalian cells in combination with POLM, EXOG, T4 polymerase, DNA polymerase λ (POLL), MGME1, RecJ exonuclease (RecJ) or Nuclease S1 (nucS). Cas9 and sgRNA alone served as the negative control. The occurrence of indels for the control and each of the combinations was measured.

## POLM: DNA polymerase μ, DSB-end blunting enzyme co-transferred with Cas9 and sgRNA (AIYLVEPRMGRSRRAFLTGLARSKGFRVLDA)
[1]
  percentage of +1 insertion: 19.6%
[2]
  percentage of +1 insertion mutations: 13.7%
[3]
  percentage of +1 insertion mutations: 12.5%

B1: EXOG: single-strand DNA specific nuclease, blunting enzyme co-transferred with Cas9 and sgRNA (protein)
chain: WSRGHMAPAGNNKFSSKAMAETFYLSNIVPQDFDNNSGYWNRIEMYCRELTERFEDVWVVSGPLTLPQTRGDGKKIVSYQVIGEDNVAVPSHLYKVILARRSSVSTEPLALGAFVVPNEAIGFQPQLTEFQVSLQDLEKLSGLVFFPHLDRTSDIRNICSVDTCKLLDFQEFTLYLSTRKIEGARSVLRLEKIMENLKNAEIEPDDYFMSRYEKKLEELKAKEQSGTQIRKPS
[1]
  percentage of −1 deletion: 5.05%

B2: RecJ: RecJ exonuclease, blunting enzyme co-transferred with Cas9 and sgRNA (protein)
chain: TVDNGISSHAGVEHARSLGIPVIVTDHHLPGDTLPAAEAIINPNLRDCNFPSKSLAGVGVAFYLMLALRTFLRDQGWFDERNIAIPNLAELLDLVALGTVADVVPLDANNRILTWQGMSRIRAGKCRPGIKALLEVANRDAQKLAASDLGFALGPRLNAAGRLDDMSVGVALLLCDNIGEARVLANELDALNQTRKEIEQGMQIEALTLCEKLERSRDTLPGGLAMYHPEWHQGVVGILASRIKERFHRPVIAFAPAGDGTLKGSGRSIQGLHMRDALERLDTLYPGMMLKFGGHAMAAGLSLEEDKFKLFQQRFGELVTEWLDPSLLQGEVVSDGPLSPAEMTMEVAQLLRDAGPWGQMFPEPLFDGHFRLLQQRLVGERHLKVMVEPVGGGPLLDGIAFNVDTALWPDNGVREVQLAYKLDINEFRGNRSLQIIIDNIWPI
[1]
  percentage of −1 deletion: 5.5%

B3: MGME1: single-strand DNA specific nuclease, blunting enzyme co-transferred with Cas9 and sgRNA (protein)
chain: LQQTMTKQQVFLLERWKQRMILELGEDGFKEYTSSFHVCDHVYMKNLARDVFLQGKRFHEALESILSPQETLKERDENLLKSGYIESVQHILKDVSGVRALESAVQHETLNYIGLLDCVAEYQGKLCVIDWKTSEKPKPFIQSTFDNPLQVVAYMGAMNHDTNYSFQVQCGLIVVAYKDGSPAHPHFMDAELCSQYWIKWLLRLEEYTEKKKNQNIQKPEYSE
[1]
  percentage of −1 deletion: 6.35%

B4: T4pol: T4 DNA polymerase, DSB-end blunting enzyme co-transferred with Cas9 and sgRNA (protein, UniProt P04415 1-898, looked up)
DNA-directed DNA polymerase: MKEFYISIETVGNNIVERYIDENGKERTREVEYLPTMFRHCKEESKYKDIYGKNCAPQKFPSMKDARDWMKRMEDIGLEALGMNDFKLAYISDTYGSEIVYDRKFVRVANCDIEVTGDKFPDPMKAEYEIDAITHYDSIDDRFYVFDLLNSMYGSVSKWDAKLAAKLDCEGGDEVPQEILDRVIYMPFDNERDMLMEYINLWEQKRPAIFTGWNIEGFDVPYIMNRVKMILGERSMKRFSPIGRVKSKLIQNMYGSKEIYSIDGVSILDYLDLYKKFAFTNLPSFSLESVAQHETKKGKLPYDGPINKLRETNHQRYISYNIIDVESVQAIDKIRGFIDLVLSMSYYAKMPFSGVMSPIKTWDAIIFNSLKGEHKVIPQQGSHVKQSFPGAFVFEPKPIARRYIMSFDLTSLYPSIIRQVNISPETIRGQFKVHPIHEYIAGTAPKPSDEYSCSPNGWMYDKHQEGIIPKEIAKVFFQRKDWKKKMFAEEMNAEAIKKIIMKGAGSCSTKPEVERYVKFSDDFLNELSNYTESVLNSLIEECEKAATLANTNQLNRKILINSLYGALGNIHFRYYDLRNATAITIFGQVGIQWIARKINEYLNKVCGTNDEDFIAAGDTDSVYVCVDKVIEKVGLDRFKEQNDLVEFMNQFGKKKMEPMIDVAYRELCDYMNNREHLMHMDREAISCPPLGSKGVGGFWKAKKRYALNVYDMEDKRFAEPHLKIMGMETQQSSTPKAVQEALEESIRRILQEGEESVQEYYKNFEKEYRQLDYKVIAEVKTANDIAKYDDKGWPGFKCPFHIRGVLTYRRAVSGLGVAPILDGNKVMVLPLREGNPFGDKCIAWPSGTELPKEIRSDVLSWIDHSTLFQKSFVKPLAGMCESAGMDYEEKASLDFLFG
[1]
  percentage of +1 insertion: 36.75%
  +1 insertion frequency: 30.3%
[2]; Cas9 and sgRNA alone 1.7%, FIG. 13D
  percentage of −1 deletion mutations: 9.05%
[2]
  percentage of +1 insertion mutations: 13.4%
[3]; Cas9 and sgRNA alone 13.2%, FIG. 14D
  percentage of −1 deletion mutations: 36.7%

B5: POLL: DNA polymerase λ, DSB-end blunting enzyme co-transferred with Cas9 and sgRNA (protein)
chain: CLQERRLVDVAGFSIFIPSRYLDHPQPSKAEQDASIPPGTHEALLQTALSPPPPPTRPVSPPQKAKEAPNTQAQPISDDEASDGEETQVSAADLEALISGHYPTSLEGDCEPSPAPAVLDKWVCAQPSSQKATNHNLHITEKLEVLAKAYSVQGDKWRALGYAKAINALKSFHKPVTSYQEACSIPGIGKRMAEKIIEILESGHLRKLDHISESVPVLELFSNIWGAGTKTAQMWYQQGFRSLEDIRSQASLTTQQAIGLKHYSDFLERMPREEATEIEQTVQKAAQAFNSGLLCVACGSYRRGKATCGDVDVLITHPDGRSHRGIFSRLLDSLRQEGFLTDDLVSQEENGQQQKYLGVCRLPGPGRRHRRLDIIVVPYSEFACALLYFTGSAHFNRSMRALAKTKGMSLSEHALSTAVVRNTHGCKVGPGRVLPTPTEKDVFRLLGLPYREPAERDW
[1]
  percentage of +1 insertion: 39.55%
  +1 insertion frequency: 35.0%
[2]
  percentage of +1 insertion mutations: 22.1%
[3]
  percentage of +1 insertion mutations: 2.95%
